# What was measured:
# [1] = biological target: pre-existing anti-scFv903 antibodies in human serum H8 (human); assay: competition ADA bridging ELISA
# [2] = biological target: pre-existing anti-scFv903 antibodies in human serum H81 (human); assay: competition ADA bridging ELISA
# [3] = biological target: pre-existing anti-scFv903 antibodies in human serum H59 (human); assay: competition ADA bridging ELISA
# [4] = biological target: pre-existing anti-scFv903 antibodies in human serum H86 (human); assay: competition ADA bridging ELISA
# [5] = biological target: pre-existing anti-scFv903 antibodies in human serum H69 (human); assay: competition ADA bridging ELISA
# [6] = biological target: pre-existing anti-scFv903 antibodies in human serum H125 (human); assay: competition ADA bridging ELISA
# [7] = biological target: pre-existing anti-scFv903 antibodies in human serum H76 (human); assay: competition ADA bridging ELISA
# [8] = biological target: pre-existing anti-scFv903 antibodies in human serum H115 (human); assay: competition ADA bridging ELISA
# [9] = biological target: pre-existing anti-scFv903 antibodies in human serum H46 (human); assay: competition ADA bridging ELISA
# [10] = biological target: pre-existing anti-scFv903 antibodies in human serum H40 (human); assay: competition ADA bridging ELISA
# [11] = biological target: pre-existing anti-scFv903 antibodies in human serum H116 (human); assay: competition ADA bridging ELISA
# [12] = biological target: pre-existing anti-scFv903 antibodies in human serum H135 (human); assay: competition ADA bridging ELISA
# [13] = biological target: pre-existing anti-scFv903 antibodies in human serum H96 (human); assay: competition ADA bridging ELISA
# [14] = biological target: pre-existing anti-scFv903 antibodies in human serum H53 (human); assay: competition ADA bridging ELISA
# [15] = biological target: pre-existing anti-scFv903 antibodies in human serum H105 (human); assay: competition ADA bridging ELISA
# [16] = biological target: pre-existing anti-scFv903 antibodies in human serum H21 (human); assay: competition ADA bridging ELISA
# [17] = biological target: pre-existing anti-scFv903 antibodies in human serum H63 (human); assay: competition ADA bridging ELISA
# [18] = biological target: pre-existing anti-scFv903 antibodies in human serum H60 (human); assay: competition ADA bridging ELISA
# [19] = biological target: pre-existing anti-scFv903 antibodies in human serum H80 (human); assay: competition ADA bridging ELISA
# [20] = biological target: pre-existing anti-scFv903 antibodies in human serum H19 (human); assay: competition ADA bridging ELISA
# [21] = biological target: pre-existing anti-scFv903 antibodies in human serum H54 (human); assay: competition ADA bridging ELISA
# [22] = biological target: pre-existing anti-scFv903 antibodies in human serum H49 (human); assay: competition ADA bridging ELISA
# [23] = biological target: pre-existing anti-scFv903 antibodies in human serum H55 (human); assay: competition ADA bridging ELISA
# [24] = biological target: pre-existing anti-scFv903 antibodies in human serum H20 (human); assay: competition ADA bridging ELISA
# [25] = biological target: pre-existing anti-scFv903 antibodies in human serum H64 (human); assay: competition ADA bridging ELISA
# [26] = biological target: pre-existing anti-scFv903 antibodies in human serum H26 (human); assay: competition ADA bridging ELISA
# [27] = biological target: pre-existing anti-scFv903 antibodies in human serum H79 (human); assay: competition ADA bridging ELISA
# [28] = biological target: pre-existing anti-scFv903 antibodies in human serum H3 (human); assay: competition ADA bridging ELISA
# [29] = biological target: pre-existing anti-scFv903 antibodies in human serum H50 (human); assay: competition ADA bridging ELISA
# [30] = biological target: pre-existing anti-scFv903 antibodies in human serum H56 (human); assay: competition ADA bridging ELISA
# [31] = biological target: pre-existing anti-scFv903 antibodies in human serum H29 (human); assay: competition ADA bridging ELISA
# [32] = biological target: pre-existing anti-scFv903 antibodies in human serum H8 (human); assay: competition ADA bridging ELISA, 100 mcg/ml competitor
# [33] = biological target: pre-existing anti-scFv903 antibodies in human serum H81 (human); assay: as above
# [34] = biological target: pre-existing anti-scFv903 antibodies in human serum H59 (human); assay: as above
# [35] = biological target: pre-existing anti-scFv903 antibodies in human serum H46 (human); assay: as above
# [36] = biological target: pre-existing anti-scFv903 antibodies in human serum H116 (human); assay: as above
# [37] = biological target: pre-existing anti-scFv903 antibodies in human serum H135 (human); assay: as above
# [38] = biological target: pre-existing anti-scFv903 antibodies in human serum H53 (human); assay: as above
# [39] = biological target: pre-existing anti-scFv903 antibodies in human serum H80 (human); assay: as above
# [40] = biological target: pre-existing anti-scFv903 antibodies in human serum H19 (human); assay: as above
# [41] = biological target: pre-existing anti-scFv903 antibodies in human serum H55 (human); assay: as above
# [42] = biological target: pre-existing anti-scFv903 antibodies in human serum H3 (human); assay: as above
# [43] = biological target: pre-existing anti-scFv903 antibodies in human serum H14 (human); assay: competition ADA bridging ELISA
# [44] = biological target: pre-existing anti-scFv903 antibodies in human serum H15 (human); assay: competition ADA bridging ELISA
# [45] = biological target: pre-existing anti-scFv903 antibodies in human serum H66 (human); assay: competition ADA bridging ELISA
# [46] = biological target: pre-existing anti-scFv903 antibodies in human serum H15 (human); assay: competition ADA bridging ELISA, 100 mcg/ml competitor
binder,measurement,setting,value
scFv 961 (scFv) scFv: EIVMTQSPSTLSASVGDRVIITCQASEIIHSWLAWYQQKPGKAPKLLIYLASTLASGVPSRFSGSGSGAEFTLTISSLQPDDFATYYCQNVYLASTNGANFGQGTKLTVLGGGGGSGGGGSGGGGSGGGGSEVQLVESGGGSVQPGGSLRLSCTASGFSLTDYYYMTWVRQAPGKGLEWVGFIDPDDDPYYATWAKGRFTISRDTSKNTVYLQMNSLRAEDTATYYCAGGDHNSGWGLDIWGQGTTVTVSS,signal change in competition ELISA (% reduction in OD),[1],-89%
same,signal change in competition ELISA (% reduction in OD),[2],-9%
same,signal change in competition ELISA (% reduction in OD),[3],-67%
same,signal change in competition ELISA (% reduction in OD),[4],-68%
same,signal change in competition ELISA (% reduction in OD),[5],-6%
same,signal change in competition ELISA (% reduction in OD),[6],3%
same,signal change in competition ELISA (% reduction in OD),[7],-36%
same,signal change in competition ELISA (% reduction in OD),[8],-31%
same,signal change in competition ELISA (% reduction in OD),[9],-40%
same,signal change in competition ELISA (% reduction in OD),[10],-2%
same,signal change in competition ELISA (% reduction in OD),[11],-33%
same,signal change in competition ELISA (% reduction in OD),[12],-75%
same,signal change in competition ELISA (% reduction in OD),[13],-78%
same,signal change in competition ELISA (% reduction in OD),[14],-31%
same,signal change in competition ELISA (% reduction in OD),[15],7%
same,signal change in competition ELISA (% reduction in OD),[16],-81%
same,signal change in competition ELISA (% reduction in OD),[17],-36%
same,signal change in competition ELISA (% reduction in OD),[18],-1%
same,signal change in competition ELISA (% reduction in OD),[19],-55%
same,signal change in competition ELISA (% reduction in OD),[20],-64%
same,signal change in competition ELISA (% reduction in OD),[21],-69%
same,signal change in competition ELISA (% reduction in OD),[22],-9%
same,signal change in competition ELISA (% reduction in OD),[23],-15%
same,signal change in competition ELISA (% reduction in OD),[24],-23%
same,signal change in competition ELISA (% reduction in OD),[25],-14%
same,signal change in competition ELISA (% reduction in OD),[26],0%
same,signal change in competition ELISA (% reduction in OD),[27],-74%
same,signal change in competition ELISA (% reduction in OD),[28],-2%
same,signal change in competition ELISA (% reduction in OD),[29],-73%
same,signal change in competition ELISA (% reduction in OD),[30],-24%
same,signal change in competition ELISA (% reduction in OD),[31],-22%
same,% reduction in OD,[32],-88.6%
same,% reduction in OD,[33],-8.8%
same,% reduction in OD,[34],-67.3%
same,% reduction in OD,[35],-40.1%
same,% reduction in OD,[36],-33.2%
same,% reduction in OD,[37],-74.7%
same,% reduction in OD,[38],-30.9%
same,% reduction in OD,[39],-55.1%
same,% reduction in OD,[40],-63.7%
same,% reduction in OD,[41],-14.7%
same,% reduction in OD,[42],-1.7%
scFv105 (scFv) scFv: DIVMTQSPSSLSASVGDRVTLTCTASQSVSNDVVWYQQRPGKAPKLLIYSAFNRYTGVPSRFSGRGYGTDFTLTISSLQPEDVAVYYCQQDYNSPRTFGQGTKLEVKRGGGGSGGGGSGGGGSSGGGSQVQLVQSGAEVKKPGASVKVSCTASGYTFTHYGMNWVRQAPGKGLEWMGWINTYTGEPTYADKFKDRFTFSLETSASTVYMELTSLTSDDTAVYYCARERGDAMDYWGQGTLVTVSS,signal change in competition ELISA (% reduction in OD),[1],-23%
same,signal change in competition ELISA (% reduction in OD),[2],-18%
same,signal change in competition ELISA (% reduction in OD),[3],-94%
same,signal change in competition ELISA (% reduction in OD),[5],-88%
same,signal change in competition ELISA (% reduction in OD),[6],-55%
same,signal change in competition ELISA (% reduction in OD),[7],-18%
same,signal change in competition ELISA (% reduction in OD),[8],-60%
same,signal change in competition ELISA (% reduction in OD),[9],-67%
same,signal change in competition ELISA (% reduction in OD),[10],4%
same,signal change in competition ELISA (% reduction in OD),[11],-43%
same,signal change in competition ELISA (% reduction in OD),[12],-23%
same,signal change in competition ELISA (% reduction in OD),[13],-29%
same,signal change in competition ELISA (% reduction in OD),[14],-18%
same,signal change in competition ELISA (% reduction in OD),[15],2%
same,signal change in competition ELISA (% reduction in OD),[16],-3%
same,signal change in competition ELISA (% reduction in OD),[17],-80%
same,signal change in competition ELISA (% reduction in OD),[18],-11%
same,signal change in competition ELISA (% reduction in OD),[19],-51%
same,signal change in competition ELISA (% reduction in OD),[20],-73%
same,signal change in competition ELISA (% reduction in OD),[21],-61%
same,signal change in competition ELISA (% reduction in OD),[22],-26%
same,signal change in competition ELISA (% reduction in OD),[23],-72%
same,signal change in competition ELISA (% reduction in OD),[24],-19%
same,signal change in competition ELISA (% reduction in OD),[25],-55%
same,signal change in competition ELISA (% reduction in OD),[26],-80%
same,signal change in competition ELISA (% reduction in OD),[43],-4%
same,signal change in competition ELISA (% reduction in OD),[27],-41%
same,signal change in competition ELISA (% reduction in OD),[28],-59%
same,signal change in competition ELISA (% reduction in OD),[44],-69%
same,signal change in competition ELISA (% reduction in OD),[29],-31%
same,signal change in competition ELISA (% reduction in OD),[30],-5%
same,signal change in competition ELISA (% reduction in OD),[45],-3%
same,signal change in competition ELISA (% reduction in OD),[31],-51%
same,% reduction in OD,[32],-23.1%
same,% reduction in OD,[33],-18.1%
same,% reduction in OD,[34],-93.7%
same,% reduction in OD,[35],-66.7%
same,% reduction in OD,[36],-43.4%
same,% reduction in OD,[37],-23.1%
same,% reduction in OD,[38],-18.4%
same,% reduction in OD,[39],-50.9%
same,% reduction in OD,[40],-73.5%
same,% reduction in OD,[41],-71.9%
same,% reduction in OD,[42],-58.8%
same,% reduction in OD,[46],-69.5%

# — patent publication US20210214461A1
